{
  "source": "patent US20110245474A1",
  "about": "(PFENEX, published 2011)",
  "binders": {"B1": {"name": "recombinant human G-CSF protein comprising an N-terminal methionine (Met-G-CSF), produced in Pseudomonas fluorescens (ligand)", "chain": "MTPLGPASSLPQSFLLKCLEQVRKIQGDGAALQEKLCATYKLCHPEELVLLGHSLGIPWAPLSSCPSQALQLAGCLSQLHSGLFLYQGLLQALEGISPELGPTLDTLQLDVADFATTIWQQMEELGMAPALQPTQGAMPAFASAFQRRAGGVLVASHLQSFLEVSYRVLRHLAQP", "notes": "Tested as soluble fraction of P. fluorescens lysates, diluted, not purified; also called hG-CSF"}},
  "target": "T1, recombinant human granulocyte colony stimulating factor receptor (GCSF-R) (R & D Systems, cat# 381GR/CF), … (human, UniProt Q99062 25-621, limits assumed, biotinylated using NHS-LC-LC-biotin (sites not given))",
  "T1 construct": "Bought reagent; also called b-GCSF-R; G-CSF receptor",
  "T1 sequence (looked up)": "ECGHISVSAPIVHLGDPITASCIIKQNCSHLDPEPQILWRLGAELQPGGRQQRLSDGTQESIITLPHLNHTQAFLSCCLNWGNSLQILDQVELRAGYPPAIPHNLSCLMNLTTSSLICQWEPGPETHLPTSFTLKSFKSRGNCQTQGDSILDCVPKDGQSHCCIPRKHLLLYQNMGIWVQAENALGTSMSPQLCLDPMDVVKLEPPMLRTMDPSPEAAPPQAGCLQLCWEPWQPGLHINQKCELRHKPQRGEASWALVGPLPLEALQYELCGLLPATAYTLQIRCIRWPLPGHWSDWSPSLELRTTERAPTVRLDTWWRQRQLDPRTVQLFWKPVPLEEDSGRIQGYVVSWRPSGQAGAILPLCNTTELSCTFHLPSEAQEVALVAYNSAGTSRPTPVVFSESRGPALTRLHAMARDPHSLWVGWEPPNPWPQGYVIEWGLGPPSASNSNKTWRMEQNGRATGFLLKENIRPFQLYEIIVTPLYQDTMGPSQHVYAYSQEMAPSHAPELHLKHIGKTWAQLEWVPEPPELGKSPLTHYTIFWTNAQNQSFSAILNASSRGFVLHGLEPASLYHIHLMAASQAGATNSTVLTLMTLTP",
  "experiment": "biolayer interferometry (Octet), biotinylated GCSF-R on streptavidin sensors, soluble lysate fractions, used to quantify the protein against a standard curve",
  "experimental": "Soluble fractions were prepared by sonication followed by centrifugation. Normalized culture broth samples (400 μL) were sonicated with the Cell Lysis Automated Sonication System (CLASS, Scinomix) with a 24 probe tip horn. The lysates were centrifuged at 14,000×rpm for 20 minutes (4° C.) and the supernatants collected (soluble fraction). Further dilutions of soluble samples for biolayer interferometry analysis were performed in ForteBio's Sample Diluent (PN, described below).\nThe lyophilized recombinant human granulocyte colony stimulating factor receptor (GCSF-R) (R & D Systems, cat# 381GR/CF) was reconstituted in PBS buffer (Sigma, P3813) to 0.5 mg/mL and biotinylated using NHS-LC-LC-biotin (Pierce, 21343) according to the method described in ForteBio Technical Note: “Biotinylation of Protein for Immobilization onto Streptavidin Sensors.” The biosensors (Streptavidin High Binding FA Biosensors, ForteBio, 18-0009) were hydrated in 1× kinetics buffer (10-fold dilution of 10× Kinetics Buffer, ForteBio, 18-5032 into PBS) for at least 10 minutes. […]\nThe soluble fraction of the strain array samples were diluted 20-fold into 1× kinetics buffer. […] The samples were read at 200 rpm, 30° C., for 120 sec, and quantitation was calculated from a standard curve at 12, 6, 3, 1.5, 0.75, 0.375, 0.188, and in some cases as low as 0.094 μg/ml.",
  "data": [
    {"binder": "B1", "values": [
      {"measurement": "binding result", "result": "binds"}
    ]}
  ]
}
